US20180223285

Experiments:
[1] = biological target: human C5 (Homo sapiens) (UniProt P01031); experiment: cell_activity; conditions: maximal 2'-OMe purine and 2'-F pyrimidine substitution; complement-dependent sheep erythrocyte hemolysis in human serum; positive control
[2] = biological target: T1, human C5a (Homo sapiens) (UniProt P01031); experiment: SPR; conditions: L-RNA
T1 sequence: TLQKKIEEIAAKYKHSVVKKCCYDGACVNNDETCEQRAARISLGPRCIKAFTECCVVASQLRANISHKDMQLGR

[3] = biological target: T2, mouse C5a (Mus musculus) (UniProt P06684); experiment: SPR; conditions: L-RNA, Biacore, HBS-EP, 37 C
T2 sequence: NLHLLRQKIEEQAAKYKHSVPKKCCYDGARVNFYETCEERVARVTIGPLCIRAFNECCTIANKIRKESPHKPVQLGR

[4] = biological target: T3, human desArg-C5a (Homo sapiens) (UniProt P01031); experiment: SPR; conditions: L-RNA, 5' 40 kDa PEG, Biacore, HBS-EP, 37 C
T3 sequence: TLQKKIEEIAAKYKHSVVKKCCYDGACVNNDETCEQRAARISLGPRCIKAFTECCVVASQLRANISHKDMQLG

[5] = biological target: T4, mouse desArg-C5a (Mus musculus) (UniProt P06684); experiment: SPR; conditions: L-RNA; L-2'-deoxy dU7,dU28,dC38; 5' 40 kDa PEG; Biacore, HBS-EP, 37 C
T4 sequence: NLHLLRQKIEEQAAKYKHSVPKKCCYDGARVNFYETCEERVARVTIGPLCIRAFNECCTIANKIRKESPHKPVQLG

[6] = L-2'-deoxy dU5,dG12,dA13,dU26,dU28,dC36, terminal stretch truncated to one nucleotide, reduced activity, exact value in figure

C5C6 aptamer (Biesecker et al. 1999)
IC50 [1]: 1000 nM

GAUGUGGUGGUGAAGGGUUGUUGGGUGUCGACGCACAGC [NOX-D19001-6xDNA-024]
Kd [2, 6]: < 10 nM

GAUGUGGUGGUGAAGGGUUGUUGGGUGUCGACGCACAGGC [NOX-D19001-6xDNA-010]
Kd [2, 6]: < 10 nM

GAUGUGGUGGUGAAGGGUUGUUGGGUGUCGACGCACGC [NOX-D19001-6xDNA-029]
Kd [2, 6]: < 10 nM

GCCUGAUGUGGUGGUGAAGGGUUGUUGGGUGUCGACGCACAGGC [NOX-D19001 (274-C8-002-G14)]
Kd ([2]; Biacore, HBS-EP, 37 C): 1.38 nM
Kd [3]: 0.3 nM

GCCUGAUGUGGUGGUGAAGGGUUGUUGGGUGUCGACGCACAGGC [NOX-D19001-6xDNA (D09-16-17-30-32-40)]
Kd ([2]; L-2'-deoxy dU9,dG16,dA17,dU30,dU32,dC40, Biacore, HBS-EP, 37 C): 0.361 nM

GCCUGAUGUGGUGGUGAAGGGUUGUUGGGUGUCGACGCACAGGC [NOX-D19001-D09]
Kd ([2]; L-2'-deoxy dU9, Biacore, HBS-EP, 37 C): 0.709 nM

GCGAUGUGGUGGUGAAGGGUUGUUGGGUGUCGACGCAC [NOX-D19001-6xDNA-032]
Kd ([2]; L-2'-deoxy dU7,dG14,dA15,dU28,dU30,dC38, terminal stretch truncated to one nucleotide, reduced activity, exact value in figure): < 10 nM

GCGAUGUGGUGGUGAAGGGUUGUUGGGUGUCGACGCACGC [NOX-D20 (NOX-D19001-6xDNA-020-5'40kDa-PEG)]
Kd ([2]; L-2'-deoxy dU7,dG14,dA15,dU28,dU30,dC38, 5' 40 kDa PEG, Biacore, HBS-EP, 37 C): 0.299 nM
Kd ([4]; L-2'-deoxy dU7,dG14,dA15,dU28,dU30,dC38): 0.316 nM
Kd ([3]; L-2'-deoxy dU7,dG14,dA15,dU28,dU30,dC38, 5' 40 kDa PEG): 0.019 nM

GCGAUGUGGUGGUGAAGGGUUGUUGGGUGUCGACGCACGC [NOX-D21 (NOX-D19001-2dU-1dC-020-5'40kDa-PEG)]
Kd ([2]; L-2'-deoxy dU7,dU28,dC38, 5' 40 kDa PEG, Biacore, HBS-EP, 37 C): 0.815 nM
Kd ([4]; L-2'-deoxy dU7,dU28,dC38): 0.854 nM
Kd ([3]; L-2'-deoxy dU7,dU28,dC38, 5' 40 kDa PEG): 0.029 nM
Kd [5]: 0.028 nM

GCGAUGUGGUGGUGAAGGGUUGUUGGGUGUCGACGCACGC [NOX-D19001-2xDNA-020]
Kd ([2]; L-2'-deoxy dU7,dU28, stated as improved by more than factor 10 vs 11.3 nM of NOX-D19001-020, exact value in figure): < 1.13 nM

GCGAUGUGGUGGUGAAGGGUUGUUGGGUGUCGACGCACGC [NOX-D19001-3dU-1dC-020]
Kd ([2]; L-2'-deoxy dU7,dU28,dU30,dC38, stated as improved by more than factor 10 vs 11.3 nM of NOX-D19001-020, exact value in figure): < 1.13 nM

GCGAUGUGGUGGUGAAGGGUUGUUGGGUGUCGACGCACGC [NOX-D19001-3xDNA-020]
Kd ([2]; L-2'-deoxy dU7,dU28,dU30, stated as improved by more than factor 10 vs 11.3 nM of NOX-D19001-020, exact value in figure): < 1.13 nM

GCGAUGUGGUGGUGAAGGGUUGUUGGGUGUCGACGCACGC [NOX-D19001-020]
Kd ([2]; Biacore, HBS-EP, 37 C): 11.3 nM

GCGAUGUGGUGGUGAAGGGUUGUUGGGUGUCGACGCACGC [NOX-D20001 (NOX-D19001-6xDNA-020)]
Kd ([2]; L-2'-deoxy dU7,dG14,dA15,dU28,dU30,dC38, Biacore, HBS-EP, 37 C): 0.3 nM

GCGAUGUGGUGGUGAAGGGUUGUUGGGUGUCGACGCACGC [NOX-D21001 (NOX-D19001-2dU-1dC-020)]
Kd ([2]; L-2'-deoxy dU7,dU28,dC38, stated as improved by more than factor 10 vs 11.3 nM of NOX-D19001-020, exact value in figure): < 1.13 nM
